# From patent US20160122426A1 (DONG A SOCIO, published 2016)
# B1: clone F (antibody, V domains shown)
# VH: AVTLHESGGGLQTPGGALSLVCKASGFTFSSHGMQWVRQAPGKGLEYVAGISSDGSWTGYGAAVKGRATISRDNGQSTVRLQLNNLRAEDTATYYCARDFSTSYGADSIDAWGHGTEVIVSS
# VL: LTQPSSVSANPGETVKITCSGGSNSAYGYGWYQQKSPGSAPVTLIYWDDKRPSDIPSRFSGSASGSTATLTITGVRAEDEAVYFCGAWEYSSDVGIFGAGTTLTVL
# notes: Clone from an immunized chicken scFv phage library; also called mother clone F; F clone
# Legend:
# mouse VEGF = target: T1, mouse VEGF (mouse, UniProt Q00731-2 27-190); assay: ELISA, 0.2 µg/ml VEGF coated, scFv or IgG serially diluted
# T1 construct: Bought recombinant protein; also called mVEGF-A; mouse VEGF-A
# T1 sequence (looked up): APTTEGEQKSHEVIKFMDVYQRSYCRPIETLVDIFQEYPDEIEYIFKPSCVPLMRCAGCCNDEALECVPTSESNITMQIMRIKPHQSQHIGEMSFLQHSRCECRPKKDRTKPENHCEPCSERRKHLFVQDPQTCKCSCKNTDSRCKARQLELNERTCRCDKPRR
# Description: ELISA plates were coated with 0.2 μg/ml of human VEGF and mouse VEGF (R&D systems, USA) respectively, and the purified proteins obtained in Example 5 in the form of scFv expressed by HB2151 or IgG expressed by 293F cells were incubated at serially diluted concentrations.
# human VEGF = target: T2, human VEGF (human, UniProt P15692-4 27-191); assay: ELISA, human VEGF coated, anti-human Fc-HRP, absorbance 450 nm [a]
# T2 construct: Bought recombinant protein; also called hVEGF; human VEGF-A
# Description: 1.5 ng of human VEGF diluted in 150 μL of buffer solution was placed in 96-well immune plate (Nunc, USA), and adsorbed at 4° C. overnight, followed by washing 3 times with a buffer solution containing 0.1% Tween 20. Then, they were reacted with a buffer solution including 1% bovine serum albumin (Sigma, USA) for 1 hr at room temperature, and washed 3 times. Then each well was treated with 150 μL of serially diluted antibody (1 ng/mL, 10 ng/mL, 30 ng/mL, 100 ng/mL, 1000 ng/mL and 3000 ng/mL) They were allowed to react for 1 hr at room temperature so that antigens may bind to antibodies, followed by washing 3 times with a buffer solution.
# Each well was treated at 150 μL per well with anti-human immunoglobulin Fc-HRP antibody (AbSerotec, USA) diluted 1:20000 and allowed to react for 1 hr at room temperature. After the reaction was completed, washing was performed 3 times with a buffer solution, followed by addition of 150 μL of TMB (Sigma, USA) and color development for 10 min. The reaction was terminated with 1N sulfuric acid solution, and absorbance was measured at 450 nm using a spectrophotometer (Molecular Device, USA).
binder,measurement,setting,value
B1,binding result,mouse VEGF,binds
same,binding result,human VEGF,binds
